Molecular target: HLA-A*02:01 (Homo sapiens, UniProt P04439, D140Y/D185E/D98H/E176V/E277Q/G131W/G231S/I119V/I121R/I166T/I218V/L300P/L318F/N151K/N90K/P208A/P217A/Q86G/Q94H/R138H/R169H/T345S)
Experiment: MHC binding assay (UV-ligand exchange, anti-β2m ELISA, peptide exchange yield)
Settings: binding to HLA-A*02:01
Excerpt: Candidate peptides for T cell based therapies according to the present invention were further tested for their MHC binding capacity (affinity). The individual peptide-MHC complexes were produced by UV-ligand exchange, where a UV-sensitive peptide is cleaved upon UV-irradiation, and exchanged with the peptide of interest as analyzed. Only peptide candidates that can effectively bind and stabilize the peptide-receptive MHC molecules prevent dissociation of the MHC complexes. To determine the yield of the exchange reaction, an ELISA was performed based on the detection of the light chain (β2m) of stabilized MHC complexes. The assay was performed as generally described in Rodenko et al. (Rodenko et al., 2006).
96 well MAXISorp plates (NUNC) were coated over night with 2 ug/ml streptavidin in PBS at room temperature, washed 4× and blocked for 1h at 37° C. in 2% BSA containing blocking buffer. […] Peptide-MHC monomers of the UV-exchange reaction were diluted 100 fold in blocking buffer. Samples were incubated for 1 h at 37° C., washed four times, incubated with 2 ug/ml HRP conjugated anti-β2m for 1h at 37° C., washed again and detected with TMB solution that is stopped with […]. Absorption was measured at 450 nm. Candidate peptides that show a high exchange yield (preferably higher than 50%, most preferred higher than 75%) are generally preferred for a generation and production of antibodies or fragments thereof, and/or T cell receptors or fragments thereof, as they show sufficient avidity to the MHC molecules and prevent dissociation of the MHC complexes.

| Substance | Peptide exchange (MHC class I binding score, peptide exchange yield) |
| --- | --- |
| 69 (FQLDPSSGVLVTV; listed as Homo sapiens) [compound 69] | “+++” (>50 = +++) |
| 30 (LILDWVPYI; listed as Homo sapiens) [compound 30] | “+++” (>50 = +++) |
| 34 (ILVEADSLWVV; listed as Homo sapiens) [compound 34] | “+++” (>50 = +++) |
| 289 (VLLEIEDLQV; listed as Homo sapiens) [compound 289] | “++++” (>75% = ++++) |
| 87 (ALPEAPAPLLPHIT; listed as Homo sapiens) [compound 87] | “++” (>20% = ++) |
| 194 (ALPLFVITV; listed as Homo sapiens) [compound 194] | “+++” (>50 = +++) |
| 517 (LLMPIPEGLTL; listed as Homo sapiens) [compound 517] | “+++” (>50 = +++) |
| 348 (ILLDVKTRL; listed as Homo sapiens) [compound 348] | “++++” (>75% = ++++) |
| 481 (GLIEDYEALL; listed as Homo sapiens) [compound 481] | “+++” (>50 = +++) |
| 405 (ALYDVFLEV; listed as Homo sapiens) [compound 405] | “++” (>20% = ++) |
| 196 (YLYSVEIKL; listed as Homo sapiens) [compound 196] | “++++” (>75% = ++++) |
| 271 (LVYPLELYPA; listed as Homo sapiens) [compound 271] | “+++” (>50 = +++) |
| 317 (SLAALVVHV; listed as Homo sapiens) [compound 317] | “+++” (>50 = +++) |
| 552 (GLLDLPFRVGV; listed as Homo sapiens) [compound 552] | “+++” (>50 = +++) |
| 336 (ILLTAIVQV; listed as Homo sapiens) [compound 336] | “+++” (>50 = +++) |
| 236 (GLLEAKVSL; listed as Homo sapiens) [compound 236] | “+++” (>50 = +++) |
| 500 (SLMEDQVLQL; listed as Homo sapiens) [compound 500] | “+++” (>50 = +++) |
| 130 (FLWNGEDSALL; listed as Homo sapiens) [compound 130] | “+++” (>50 = +++) |
| 551 (KLYESLLPFA; listed as Homo sapiens) [compound 551] | “+++” (>50 = +++) |
| 63 (YLLPSGGSVTL; listed as Homo sapiens) [compound 63] | “++” (>20% = ++) |
| 205 (SLYPGTETMGL; listed as Homo sapiens) [compound 205] | “+++” (>50 = +++) |

| Substance | Peptide exchange (MHC class I binding score, peptide exchange yield) |
| --- | --- |
| 43 (VLSSLEINI; listed as Homo sapiens) [compound 43] | “++” (>20% = ++) |
| 128 (YLFDDPLSAV; listed as Homo sapiens) [compound 128] | “++” (>20% = ++) |
| 182 (MLLEAPGIFL; listed as Homo sapiens) [compound 182] | “+++” (>50 = +++) |
| 563 (WLLPYNGVTV; listed as Homo sapiens) [compound 563] | “+++” (>50 = +++) |
| 39 (SVAPNLPAV; listed as Homo sapiens) [compound 39] | “+++” (>50 = +++) |
| 548 (ALWENPESGEL; listed as Homo sapiens) [compound 548] | “++” (>20% = ++) |
| 449 (KLAEGLDIQL; listed as Homo sapiens) [compound 449] | “+++” (>50 = +++) |
| 464 (ALNDCIYSV; listed as Homo sapiens) [compound 464] | “+++” (>50 = +++) |
| 355 (SIQQSIERLLV; listed as Homo sapiens) [compound 355] | “++” (>20% = ++) |
| 382 (ALQNYIKEA; listed as Homo sapiens) [compound 382] | “++” (>20% = ++) |
| 326 (FLPEALDFV; listed as Homo sapiens) [compound 326] | “+++” (>50 = +++) |
| 381 (FIDEAYVEV; listed as Homo sapiens) [compound 381] | “++” (>20% = ++) |
| 255 (VLASYNLTV; listed as Homo sapiens) [compound 255] | “+++” (>50 = +++) |
| 371 (FLQAHLHTA; listed as Homo sapiens) [compound 371] | “++++” (>75% = ++++) |
| 589 (KLYPQLPAEI; listed as Homo sapiens) [compound 589] | “+++” (>50 = +++) |
| 590 (SLIEKLWQT; listed as Homo sapiens) [compound 590] | “++” (>20% = ++) |
| 599 (YLLNDASLISV; listed as Homo sapiens) [compound 599] | “+++” (>50 = +++) |
| 23 (VLLDDIFAQL; listed as Homo sapiens) [compound 23] | “+++” (>50 = +++) |
| 269 (RVLEVGALQAV; listed as Homo sapiens) [compound 269] | “++” (>20% = ++) |
| 441 (ALLENPKMEL; listed as Homo sapiens) [compound 441] | “+++” (>50 = +++) |
| 111 (YVWGFYPAEV; listed as Homo sapiens) [compound 111] | “+++” (>50 = +++) |

| Substance | Peptide exchange (MHC class I binding score, peptide exchange yield) |
| --- | --- |
| 388 (SLTIDGIRYV; listed as Homo sapiens) [compound 388] | “+++” (>50 = +++) |
| 573 (ILVANAIVGV; listed as Homo sapiens) [compound 573] | “+++” (>50 = +++) |
| 122 (FLLAEDDIYL; listed as Homo sapiens) [compound 122] | “+++” (>50 = +++) |
| 102 (YLFESEGLVL; listed as Homo sapiens) [compound 102] | “+++” (>50 = +++) |
| 537 (TLAPGEVLRSV; listed as Homo sapiens) [compound 537] | “+++” (>50 = +++) |
| 387 (ALFQATAEV; listed as Homo sapiens) [compound 387] | “++++” (>75% = ++++) |
| 78 (SLFSSLEPQIQPV; listed as Homo sapiens) [compound 78] | “+++” (>50 = +++) |
| 266 (KITDTLIHL; listed as Homo sapiens) [compound 266] | “+++” (>50 = +++) |
| 10 (FLATFPLAAV; listed as Homo sapiens) [compound 10] | “++++” (>75% = ++++) |
| 439 (YLLQEIYGI; listed as Homo sapiens) [compound 439] | “+++” (>50 = +++) |
| 195 (GLFADLLPRL; listed as Homo sapiens) [compound 195] | “+++” (>50 = +++) |
| 129 (GLLDGGVDILL; listed as Homo sapiens) [compound 129] | “+++” (>50 = +++) |
| 428 (KLGHTDILVGV; listed as Homo sapiens) [compound 428] | “++” (>20% = ++) |
| 302 (ALLQEGEVYSA; listed as Homo sapiens) [compound 302] | “+++” (>50 = +++) |
| 173 (LLDSASAGLYL; listed as Homo sapiens) [compound 173] | “+++” (>50 = +++) |
| 488 (FLAEDPKVTL; listed as Homo sapiens) [compound 488] | “+++” (>50 = +++) |
| 51 (LLPDLEFYV; listed as Homo sapiens) [compound 51] | “++++” (>75% = ++++) |
| 474 (YLDPALELGPRNV; listed as Homo sapiens) [compound 474] | “+++” (>50 = +++) |
| 299 (YLLETSGNL; listed as Homo sapiens) [compound 299] | “+++” (>50 = +++) |
